Data on 3 molecules can be found in paper doi:10.1101/2022.08.02.502465.

Like-named read-outs stand apart in the source and are kept apart here.

Data set [1] deals with T1, DNA polymerase I (Pol I) (Escherichia coli, UniProt P00582 1-928). Description: BLI. In general terms: BLI is a label-free optical method that tracks binding on a fibre tip over time.
The target in data set [2] is T1, DNA polymerase I (Pol I). The experiment in a line: BLI. The source holds these as a separate data set.
Data set [3] concerns the target Pol I endo-mut (endonuclease-dead full-length Pol I) (Escherichia coli, UniProt P00582 1-928, D115A;D140A). Description: cryo-EM structure.
Data set [4] deals with Pol I Klenow fragment (Pol IKL) (Escherichia coli, UniProt P00582 328-928). The experiment in a line: cryo-EM structure.

B1: primed BLI substrate (mixed)
DNA 1: CGCTCACTGGCCGTCGTTTTACAACGTCGTGACTGGGAAAACCCTGGCGTTACC
DNA 2: ACGACGTTGTAAAACGACGGCCAGTGAGCG
Take B1: in the data set with DNA polymerase I (Pol I) [1], binding was put at a Kd of 42 ± 5 nM.

B2: continuous BLI substrate (dsDNA)
DNA 1: GGTAACGCCAGGGTTTTCCCAGTCACGACGTTGTAAAACGACGGCCAGTGAGCG
DNA 2: B1 DNA 1
In the case of B2, in the data set with DNA polymerase I (Pol I) [2], the Kd – broadly, the concentration at which binding is half-saturated – worked out at 285 ± 5 nM.

B3: flapped Okazaki fragment DNA (cryo-EM) (mixed)
DNA 1: B1 DNA 1
DNA 2: GGTAACGCCAGGGTTTTCCCAGTC
DNA 3: TTTTTTACGACGTTGTAAAACGACGGCCAGTGAGCG
As for B3, the binding result in data set [3] and in data set [4] was “binds” each time.
